What all share (test): cells, lysate or membranes
Substrate in data set [1]: C[C@]12CCC(=O)C[C@@H]1CC[C@@H]1[C@@H]2CC[C@]2(C)[C@@H](O)CC[C@@H]12
The note with it: UDP-glucuronic acid co-substrate, 37 °C, DHT-glucuronide formation.

Substrate in data set [2]: C[C@]12CC[C@@H](O)C[C@@H]1CC[C@@H]1[C@@H]2CC[C@]2(C)[C@@H](O)CC[C@@H]12
The conditions noted are these: UDP-glucuronic acid co-substrate, 37 °C, 17-glucuronide (3α-Diol-17G) formation.

Substrate in data set [3]: C[C@]12CC[C@H]3[C@@H](CCC4=CC(=O)CC[C@@]43C)[C@@H]1CC[C@@H]2O
The note with it: UDP-glucuronic acid co-substrate, 37 °C, testosterone-glucuronide formation.

Where [4] appears, read: table value, text b37 prints 17.8 ± 2.0.
The mark [5] stands for this setting: table value, text b37 prints 22.5 ± 5.1.

B1: Ugt2b1 (Mus musculus) (protein)
chain: KVLVWPTEYSHWINMKIILDELVQRGHDVTVLISSASILIGPSNESSINFEIYSAPLSKDDLEYAFEKWVGNWTYELKKLPFWTSYSKLQKISSEYSDMIESFCKAVVWNKSLMKKLQGSKFDVVLADALVPCGELLSELLKTPLVYSLRFCPGYKCEKYSGGLPLPPSYVPVVLSELSDHMTFAERVKNMLQVLLFDFWFQTFNEKSWNQFYSDVLGRPTTLTEMMGKADIWLVRTFWDLKFPHPFLPNFDFVGGLHCKPAKPLPKEMEEFVQSSGEHGVVVFSLGSMVKNIKEEKANVVASALAQIPQKVLWRFDGKKPDTLGSNTRLYKWIPQNDLLGHPKTKAFIAHGGTNGIYEAIYHGIPIVGIPLFGDQPDNINHIVAKGAAVRVDFDTMSTTDLLTALKTVINDPSYKENAMRLSRIHHDQPMKPLDRAVFWIEYVMRNKGAKHLRPALHDLTWFQYHSLDVIGFLLVCVVAVVFIIAKCCLFCCHKTANMGKKKKE
Regarding B1, the Km (in general, the substrate concentration at which the rate is half of its maximum) in data set [1] is 17.8 ± 0.7 µM; in data set [2] (setting [4]), 11.7 ± 2.0 µM; in data set [3], 20.3 ± 0.7 µM. Also, the maximal velocity (Vmax) – broadly, the rate approached at saturating substrate – in data set [1] came out at 0.000238 µmol/min/mg; in data set [2] (setting [4]) it was 3.48e-05 µmol/min/mg; in data set [3], 5.12e-05 µmol/min/mg.

B2: Ugt2b34 (Mus musculus) (protein)
chain: GKVLVWPMEFSHWLNLKTILDELLKKGHEVMVLRPSASLSYEVDNTSAIEFETYPTSYSLSELEEIFWESLKKYIYELPKQSFWGYFLMLQEMVWVDSKYFESLCKDVVFNKELMTKLQKSRFDVILADPFIPCGDLLAEVLKIPLVYSLRFFPGSTYEKYSGGLPLPPSYVPVVMSELSDRMTFMERVRNVIYMLCFDFWFQTFNEKNWNQLYTEVLGRPTTLSETMAKADIWLIRTYWDLEFPHPVLPNFDFIGGLHCRPAKPLPKEIEDFVQSSGEHGVVVFSLGSMVGSITEERANVIAAGLAQIPQKVLWRFEGKKPETLGSNTRLYKWIPQNDLLGHSKTRAFITHGGTNGIYEAIYHGIPVVGIPLFGDQYDNIVHLKAKGAAVRLDFLTMSSTDLHTALKTVTNDPSYKENAMRLSRIHHDQPVKPLDRAVFWIEFVMRHKGAKHLRVAAHDLSWVQYHSLDVLGFLLACVLTVMFILKKCCLFCCQKLTKAGRKKKGE
Take B2: the Km in data set [1] amounted to 54.9 ± 2.9 µM; in data set [2], 16.3 ± 4.8 µM. The Vmax was 4.31e-05 µmol/min/mg in data set [1] and 8.5e-06 µmol/min/mg in data set [2].

B3: Ugt2b5 (Mus musculus) (protein)
chain: GKVLVWPMEFSHWMNIKIILDELVQRGHEVTVLRPSAYYVLDPKKSPGLKFETFPTSVSKDNLENFFIKFVDVWTYEMPRDTCLSYSPLLQNMIDEFSDYFLSLCKDVVSNKELMTKLQESKFDVLLSDPVASCGELIAELLQIPFLYSIRFSPGYQIEKSSGRFLLPPSYVPVILSGLGGQMTFIERIKNMICMLYFDFWFQMFNDKKWDSFYSEYLGRPTTLVETMGQAEMWLIRSNWDLEFPHPTLPNVDYVGGLHCKPAKPLPKDMEEFVQSSGDHGVVVFSLGSMVSNMTEEKANAIAWALAQIPQKVLWKFDGKTPATLGHNTRVYKWLPQNDLLGHPKTKAFVTHGGANGVYEAIYHGIPMIGIPLFGEQHDNIAHMVAKGAAVALNIRTMSKSDVLNALEEVIENPFYKKNAIWLSTIHHDQPMKPLDRAVFWIEFVMRHKRAKHLRPLGHNLTWYQYHSLDVIGFLLSCVATTIVLSVKCLLFIYRFFVKKENKMKNE
On to B3, for which the Km is 35.6 ± 11.5 µM in data set [1], 22.7 ± 5.1 µM in data set [2] (setting [5]) and 65.5 ± 8.6 µM in data set [3]. Besides, the results for the maximum rate (Vmax) in data set [1], in data set [2] (setting [5]) and in data set [3] were 5.05e-05 µmol/min/mg, 0.000115 µmol/min/mg and 0.000186 µmol/min/mg, respectively.
